These results are taken from patent US6670189B2, “Fumonisin detoxification compositions and methods” (priority 1994, dated 2003).

For one data set, the system named is FB1 Hydrolase activity. Briefly: Effect of various treatments on modification of FB1 by E. spinifera esterase (culture filtrates). Also noted: key: − = no hydrolysis; ± = trace amount of hydrolysis; + = incomplete hydrolysis; ++ = incomplete hydrolysis; +++ = complete hydrolysis. The note with it: treatment 0.01 mg/ml, 16 hr, 37° C., pH 5.2; then incubated with FB1 overnight at 37° C. The class given is biochemical, Exophiala spinifera. How it is done:
(§1) Analytical thin-layer chromatography was carried out on 100% silanized C18 silica plates (Sigma #T-7020; 10×10 cm; 0.1 mm thick) by a modification of the published method of Rottinghaus (Rottinghaus, G. E., Coatney, C. E., and Minor, H. C., A rapid, sensitive thin layer chromatography procedure for the detection of fumonisin b-1 and b-2, J Vet Diagn Invest, 4, 326 (1992), and herein incorporated by reference).
(§2) Sample lanes were pre-wet with methanol to facilitate sample application. After application of from 0.1 to 2 μl of aqueous sample, the plates were air-dried and developed in MeOH:4% KCl (3:2) or MeOH:0.2 M KOH (3:2) and then sprayed successively with 0.1 M sodium borate (pH 9.5) and fluorescamine (0.4 mg/ml in acetonitrile). Plates were air-dried and viewed under long wave UV.
The esterase isolated from E. spinifera was then subjected to other treatments, including proteases, to determine whether and how the enzyme would function in various environments.

A short description of data set [1]: Hydrolysis of fumonisin B1 by commercial esterases and hydrolases. In kind it is biochemical. The note with it: assay pH 5.2; overnight at 37° C. with 1 mg/ml fumonisin. Also noted: key: − = no hydrolysis; ± = trace amount of hydrolysis; + = incomplete hydrolysis; ++ = incomplete hydrolysis; +++ = complete hydrolysis. How it is done:
as §1, §2
The fumonisin esterase isolated from E. spinifera and R. atrovirens was compared with other known esterases from various sources as supplied by commercial vendors.

B1: Protease K: protease used to treat the culture filtrate (protein, UniProt P06873 106-384, looked up)
Proteinase K: AAQTNAPWGLARISSTSPGTSTYYYDESAGQGSCVYVIDTGIEASHPEFEGRAQMVKTYYYSSRDGNGHGTHCAGTVGSRTYGVAKKTQLFGVKVLDDNGSGQYSTIIAGMDFVASDKNNRNCPKGVVASLSLGGGYSSSVNSAAARLQSSGVMVAVAAGNNNADARNYSPASEPSVCTVGASDRYDRRSSFSNYGSVLDIFGPGTSILSTWIGGSTRSISGTSMATPHVAGLAAYLMTLGKTTAASACRYIADTANKGDLSNIPFGTVNLLAYNNYQA
Turning to B1, the “FB1 Hydrolase activity” value in the data set with FB1 Hydrolase activity is listed as “+”.

B2: Fumonisin esterase (protein)
chain: APTVKIDAGMVVGTTTTVPGTTATVSEFLGVPFAASPTRFAPPTRPVPWSTPLQATAYGPACPQQFNYPEELREITMAWFNTPPPSAGESEDCLNLNIYVPGTENTNKAVMVWIYGGALEYGWNSFHLYDGASFAANQDVIVVTINYRTNILGFPAAPQLPITQRNLGFLDQRFALDWVQRNIAAFGGDPRKVTIFGQSAGGRSVDVLLTSMPHNPPFRAAIMESGVANYNFPKGDLSEPWNTTVQALNCTTSIDILSCMRRVDLATLMNTIEQLGLGFEYTLDNVTVVYRSETARTTGDIARVPVLVGTVANDGLLFVLGENDTQAYLEEAIPNQPDLYQTLLGAYPIGSPGIGSPQDQIAAIETEVRFQCPSAIVAQDSRNRGIPSWRYYYNATFENLELFPGSEVYHSSEVGMVFGTYPVASATALEAQTSKYMQGAWAAFAKNPMNGPGWKQVPNVAALGSPGKAIQVDVSPATIDQRCALYTHYYTELGTIAPRTF
In the case of B2, the FB1 hydrolysis entry in data set [1] is “+++”.
